Measured values: patent publication US20240270821A1, “GIP/GLP1/GCG TRI-RECEPTOR AGONISTS AND USES THEREOF” (priority 2023, published 2024)

T1: human GIP receptor (human) (UniProt P48546)
T1 sequence (looked up): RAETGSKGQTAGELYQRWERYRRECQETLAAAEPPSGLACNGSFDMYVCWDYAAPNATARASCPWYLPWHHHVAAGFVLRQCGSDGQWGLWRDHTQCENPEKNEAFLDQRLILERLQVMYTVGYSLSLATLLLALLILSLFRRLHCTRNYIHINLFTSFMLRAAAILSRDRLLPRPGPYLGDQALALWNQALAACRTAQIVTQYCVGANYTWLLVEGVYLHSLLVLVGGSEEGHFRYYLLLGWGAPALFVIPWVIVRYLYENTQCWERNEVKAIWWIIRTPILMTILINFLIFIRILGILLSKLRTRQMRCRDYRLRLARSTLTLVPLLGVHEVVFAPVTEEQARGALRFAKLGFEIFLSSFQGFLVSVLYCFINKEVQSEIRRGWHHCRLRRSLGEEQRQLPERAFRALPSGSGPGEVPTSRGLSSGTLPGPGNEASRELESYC


How the values were obtained:
Test in all cases: cell-based or functional assay
hGLP-1R = hGLP-1R (Homo sapiens, UniProt P43220)
Sequence of hGLP-1R (P43220 24-463): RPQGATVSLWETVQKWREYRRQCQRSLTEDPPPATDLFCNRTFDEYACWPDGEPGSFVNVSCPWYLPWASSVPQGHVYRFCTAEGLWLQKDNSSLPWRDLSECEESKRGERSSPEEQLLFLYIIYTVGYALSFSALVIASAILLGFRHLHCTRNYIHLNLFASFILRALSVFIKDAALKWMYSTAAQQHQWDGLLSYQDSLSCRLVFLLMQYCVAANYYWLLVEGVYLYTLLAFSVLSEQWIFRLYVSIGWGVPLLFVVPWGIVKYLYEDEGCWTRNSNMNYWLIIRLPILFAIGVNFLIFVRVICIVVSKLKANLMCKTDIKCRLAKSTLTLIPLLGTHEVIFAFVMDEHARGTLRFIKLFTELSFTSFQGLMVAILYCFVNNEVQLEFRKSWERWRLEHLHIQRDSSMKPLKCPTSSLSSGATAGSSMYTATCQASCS

[1] = target: human glucagon receptor (human) (UniProt P47871)
Sequence of human glucagon receptor (human) (P47871 26-477): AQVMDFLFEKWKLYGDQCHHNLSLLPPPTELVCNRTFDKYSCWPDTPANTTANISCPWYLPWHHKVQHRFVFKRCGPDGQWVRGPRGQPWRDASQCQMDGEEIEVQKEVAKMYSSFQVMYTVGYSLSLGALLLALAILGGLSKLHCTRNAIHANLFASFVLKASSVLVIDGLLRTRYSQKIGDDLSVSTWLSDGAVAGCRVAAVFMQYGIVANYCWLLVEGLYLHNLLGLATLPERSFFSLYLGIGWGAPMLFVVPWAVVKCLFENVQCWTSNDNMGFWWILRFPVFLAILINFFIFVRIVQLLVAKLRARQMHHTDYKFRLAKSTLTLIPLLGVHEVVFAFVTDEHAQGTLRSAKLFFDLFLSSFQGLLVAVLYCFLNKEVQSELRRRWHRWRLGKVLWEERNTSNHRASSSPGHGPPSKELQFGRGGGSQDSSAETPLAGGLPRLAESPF

[2] = target: T1, human GIP receptor (human)

Binder | Relative cAMP EC50 (hGLP-1R) [nM] | cAMP Rel EC50 (1% HSA) (hGLP-1R) [nM] | Relative cAMP EC50 [1] [nM] | cAMP Rel EC50 (1% HSA) [1] [nM] | Relative cAMP EC50 [2] [nM] | cAMP Rel EC50 (1% HSA) [2] [nM] | cAMP Rel EC50 (in the presence of 1% HSA) (hGLP-1R) [nM] | cAMP Rel EC50 (in the presence of 1% HSA) [1] [nM] | cAMP Rel EC50 (in the presence of 1% HSA) [2] [nM]
YXQGTXTSDXSIXLDXKAAXAFIEXLLEGGPSSGEPPPS (synthetic construct; SITE 2: note = 2-Aminoisobutyric Acid; SITE 6: note = alpha-methyl-2-fluoro-L-phenylalanine; SITE 10: note = 3-(4-Pyridyl)-L-alanine; SITE 13: note = alpha-methyl-leucine; SITE 16: note = L-ornithine; SITE 17: note = Lysine is chemically modified through conjugation of the epsil) [Example 1236] | 0.304 | 95.8 | 0.947 | 502 | 0.052 | 11.9 | – | – | –
YXQATXTSDXXIXLDXKAQXEFIEXLVEGGPSSGAPPPSGS (synthetic construct; SITE 2: note = 2-Aminoisobutyric Acid; SITE 4: note = D-amino acid; SITE 6: note = alpha-methyl-2-fluoro-L-phenylalanine; SITE 10: note = 3-(4-Pyridyl)-L-alanine; SITE 11: note = alpha-methyl-L-serine; SITE 13: note = alpha-methyl-leucine; SITE 16: note = L-ornithine; SITE 17: n) [Example 1204] | 0.338 | 37.4 | 3.5 | 507 | 0.21 | 15.8 | – | – | –
YXQGTXTSDXXIXLDXXAQXEFIEXLIEGGPSSGAPPPSGS (synthetic construct; SITE 2: note = 2-Aminoisobutyric Acid; SITE 6: note = alpha-methyl-2-fluoro-L-phenylalanine; SITE 10: note = 3-(4-Pyridyl)-L-alanine; SITE 11: note = alpha-methyl-L-serine; SITE 13: note = alpha-methyl-leucine; SITE 16: note = L-ornithine; SITE 17: note = Ornithine is chemically) [Example 1211] | 0.276 | 33.2 | 1.45 | 211 | 0.00592 | 0.489 | – | – | –
YXQGTXTSDXXIXLDXXAQXEFIEXLVEGGPSSGAPPPSGS (synthetic construct; SITE 2: note = 2-Aminoisobutyric Acid; SITE 6: note = alpha-methyl-2-fluoro-L-phenylalanine; SITE 10: note = 3-(4-Pyridyl)-L-alanine; SITE 11: note = alpha-methyl-L-serine; SITE 13: note = alpha-methyl-leucine; SITE 16: note = L-ornithine; SITE 17: note = Ornithine is chemically) [Example 1210] | 0.375 | 38.1 | 2.25 | 288 | 0.00704 | 0.635 | – | – | –
YXQGTXTSDXXIXLDXKAQXEFIEXLIEGGPSSGEPPPSGS (not fully specified; synthetic construct; SITE 2: note = 2-Aminoisobutyric Acid; SITE 6: note = alpha-methyl-2-fluoro-L-phenylalanine; SITE 10: note = 3-(4-Pyridyl)-L-alanine; SITE 11: note = alpha-methyl-L-serine; SITE 13: note = alpha-methyl-leucine; SITE 16: note = L-ornithine; SITE 17: note = Lysine is chemically mo) [Example 1208] | 0.526 | 44.8 | 3.52 | 451 | 0.00907 | 0.786 | – | – | –
YXQGTXTSDXXIXLDXXAQXEFIEXLIEGGPSSGAPPPSGGGE (synthetic construct; SITE 2: note = 2-Aminoisobutyric Acid; SITE 6: note = alpha-methyl-2-fluoro-L-phenylalanine; SITE 10: note = 3-(4-Pyridyl)-L-alanine; SITE 11: note = alpha-methyl-L-serine; SITE 13: note = alpha-methyl-leucine; SITE 16: note = L-ornithine; SITE 17: note = Ornithine is chemically) [Example 1213] | 0.423 | 44 | 1.69 | 268 | 0.00721 | 0.616 | – | – | –
YXQGTXTSDXXIXLDXQAQXEFIEXLIEGGPSSGAPPPSGGGE (not fully specified; synthetic construct; SITE 2: note = 2-Aminoisobutyric Acid; SITE 6: note = alpha-methyl-2-fluoro-L-phenylalanine; SITE 10: note = 3-(4-Pyridyl)-L-alanine; SITE 11: note = alpha-methyl-L-serine; SITE 13: note = alpha-methyl-leucine; SITE 16: note = L-ornithine; SITE 20: note = 3-(4-Pyridyl)-L-alanine) [Example 1234] | 1.17 | 1.15 | 11.6 | 11.7 | 0.0135 | 0.011 | – | – | –
YXQGTFTSDFSKXLDKKAQXAFIEYLLAGGPSSGEPPPGGS (synthetic construct; SITE 2: note = 2-Aminoisobutyric Acid; SITE 13: note = alpha-methyl-leucine; SITE 17: note = Lysine is chemically modified through conjugation of the epsilon-amino group of the Lysine side chain with (2-[2-(2-Amino-ethoxy)-ethoxy]-acetyl)-(gamma-Glu)-CO-(CH2) 18-CO2H; SITE 20: n) [Example 9] | 1.61 | – | 7.19 | – | 0.205 | – | 402 | 1430 | 41.8
YXQGTXTSDXSIXLDXXAQXXFIEXLIEGGPSSGEPPPETE (synthetic construct; SITE 2: note = 2-Aminoisobutyric Acid; SITE 6: note = alpha-methyl-2-fluoro-L-phenylalanine; SITE 10: note = 3-(4-Pyridyl)-L-alanine; SITE 13: note = alpha-methyl-leucine; SITE 16: note = L-ornithine; SITE 17: note = Ornithine is chemically modified through conjugation of the ep) [Example 1209] | 0.41 | 37.7 | 0.97 | 124 | 0.00819 | 0.565 | – | – | –
YXQGTXTSDXXIXLDXXAQXEFIEXLIEGGPSSGAPPPSGSE (synthetic construct; SITE 2: note = 2-Aminoisobutyric Acid; SITE 6: note = alpha-methyl-2-fluoro-L-phenylalanine; SITE 10: note = 3-(4-Pyridyl)-L-alanine; SITE 11: note = alpha-methyl-L-serine; SITE 13: note = alpha-methyl-leucine; SITE 16: note = L-ornithine; SITE 17: note = Ornithine is chemically) [Example 1212] | 0.357 | 38.2 | 1.71 | 230 | 0.00702 | 0.614 | – | – | –
YXQGTXTSDXXIXLDXQAQXEFIEXLIEGGPSSGAPPPSGSE (not fully specified; no fatty acid; synthetic construct; SITE 2: note = 2-Aminoisobutyric Acid; SITE 6: note = alpha-methyl-2-fluoro-L-phenylalanine; SITE 10: note = 3-(4-Pyridyl)-L-alanine; SITE 11: note = alpha-methyl-L-serine; SITE 13: note = alpha-methyl-leucine; SITE 16: note = L-ornithine; SITE 20: note = 3-(4-Pyridyl)-L-alanine) [Example 1233] | 1.09 | 1.06 | 9.48 | 9.9 | 0.012 | 0.00988 | – | – | –
